Test results as given in patent US20090060908A1.

Molecular target: CD16 (FcγRIII) on human peripheral blood effector cells (human) (UniProt P08637)
Assay: cell-based or functional assay

Sequence of CD16 (FcγRIII) on human peripheral blood effector cells (human) (P08637 17-254): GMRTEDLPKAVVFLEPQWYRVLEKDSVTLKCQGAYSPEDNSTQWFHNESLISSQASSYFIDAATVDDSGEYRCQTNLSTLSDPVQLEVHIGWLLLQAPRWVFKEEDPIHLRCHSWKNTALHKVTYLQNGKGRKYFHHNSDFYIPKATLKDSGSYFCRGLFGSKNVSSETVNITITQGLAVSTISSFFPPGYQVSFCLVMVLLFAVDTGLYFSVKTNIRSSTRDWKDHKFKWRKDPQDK

Substance: anti-CD16 antibody 3G8
- % lysis in ADCC by 1 µg/ml 2A10 (fucosylated or defucosylated) with 5 µg/ml anti-CD16 antibody 3G8: < 5%
- % lysis in ADCC by 1 µg/ml 7F12 (CHO-derived or chicken-derived) with 5 µg/ml anti-CD16 antibody 3G8: 4%
